Consider two molecules from paper doi:10.1101/2020.06.11.146753, “Insights into glycan import by a prominent gut symbiont” (bioRxiv, 2020).

The stoichiometry N is a count of units in the complex or per binding partner.

The target in one data set is T1, Bt1763 (SusC) (Bacteroides thetaiotaomicron VPI-5482, UniProt Q8A6W3 26-1041).
T1 construct: Bt1763, SusC TonB-dependent transporter of the levan PUL, Bacteroides thetaiotaomicron VPI-5482; Untagged; isolated through the His6 tag on Bt1762; NTE invisible in the X-ray structures; plug domain absent from closed, empty transporters; also called SusC TonB-dependent transporter; source: B. thetaiotaomicron (Bt1762-his strain) grown on MM-fructose, outer membrane fraction in LDAO; purified …
T1 sequence (looked up): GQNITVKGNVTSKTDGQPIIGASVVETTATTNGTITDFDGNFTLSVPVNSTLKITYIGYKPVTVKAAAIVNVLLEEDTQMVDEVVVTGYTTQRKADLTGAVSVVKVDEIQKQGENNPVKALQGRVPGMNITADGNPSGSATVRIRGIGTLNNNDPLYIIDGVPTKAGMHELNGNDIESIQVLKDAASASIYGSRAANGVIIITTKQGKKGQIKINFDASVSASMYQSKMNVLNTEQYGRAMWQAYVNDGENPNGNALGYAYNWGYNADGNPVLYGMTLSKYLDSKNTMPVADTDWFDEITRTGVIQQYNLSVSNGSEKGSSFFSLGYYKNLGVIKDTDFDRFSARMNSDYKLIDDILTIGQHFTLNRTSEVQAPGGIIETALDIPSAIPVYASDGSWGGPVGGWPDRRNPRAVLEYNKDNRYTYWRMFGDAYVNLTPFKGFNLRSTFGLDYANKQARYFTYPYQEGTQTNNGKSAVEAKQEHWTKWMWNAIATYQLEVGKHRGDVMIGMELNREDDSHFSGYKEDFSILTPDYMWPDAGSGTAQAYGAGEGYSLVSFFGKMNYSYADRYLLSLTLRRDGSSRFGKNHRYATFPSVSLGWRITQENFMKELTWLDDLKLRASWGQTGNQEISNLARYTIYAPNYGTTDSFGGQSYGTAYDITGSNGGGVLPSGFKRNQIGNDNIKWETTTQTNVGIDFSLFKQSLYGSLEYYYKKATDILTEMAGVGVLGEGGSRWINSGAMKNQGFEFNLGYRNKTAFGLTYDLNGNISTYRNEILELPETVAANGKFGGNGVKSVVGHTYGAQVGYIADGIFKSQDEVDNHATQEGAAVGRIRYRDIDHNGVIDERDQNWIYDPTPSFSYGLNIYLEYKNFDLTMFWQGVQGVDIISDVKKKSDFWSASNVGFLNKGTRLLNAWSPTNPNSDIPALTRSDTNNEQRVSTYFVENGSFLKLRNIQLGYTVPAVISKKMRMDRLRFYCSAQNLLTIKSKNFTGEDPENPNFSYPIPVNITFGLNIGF
Nature of the data set: crystal structure; Bt1762-63 purified from B. theta in 10 mM Hepes/100 mM NaCl/0.4% C8E4 pH 7.5; crystallised without ligand and after incubation with 2.5 mM β2,6 FOS. The conditions noted are these: both partners purified.

Data set [1] deals with the molecule itself. Description: native MS; purified Bt1762-63 in 0.5% C8E4, 0.2 M ammonium acetate, pH 6.9; ligand-free and with FOS fractions.

B1: Bt1762 (SusD), C-terminal His6 tag, from the B. theta Bt1762-his strain (natural protein, Bacteroides thetaiotaomicron VPI-5482, UniProt Q8A6W4 19-570, looked up)
chain: CDDFLDRQVPQGIVTGDQIASPEYVDNLVISAYAIWATGDDINSSFSLWNYDVRSDDCYKGGSGTEDGGVFNALEISKGINTTDWNINDIWKRLYQCITRANTALQSLDQMDEKTYPLKNQRIAEMRFLRGHAHFMLKQLFKKIVIVNDENMEPDAYNELSNTTYTNDEQWQKIADDFQFAYDNLPEVQIEKGRPAQAAAAAYLAKTYLYKAYRQDGADNALTGINEEDLKQVVKYTDPLIMAKGGYGLETDYSMNFLPQYENGAESVWAIQYSINDGTYNGNLNWGMGLTTPQILGCCDFHKPSQNLVNAFKTDSQGKPLFSTYDNENYEVATDNVDPRLFHTVGMPGFPYKYNEGYIIQKNDDWSRSKGLYGYYVSLKENVDPDCDCLKKGSYWASSLNHIVIRYADVLLMRAEALIQLNDGRITDAISLINEVRSRAAGSTMLIFNYKEDYGVNFKVTPYDLKAYAQDEAMKMLKWERRVEFGMESSRFFDLVRWGEAKDVINAYYVTEASRCSIYKNAGFTENKNEYLPVPFEQISASNGNYTQNFGW
modifications: lipid anchor (lipoprotein)
notes: Chromosomally tagged, expressed natively; always isolated together with Bt1763; also called SusD lid; WT Bt1762; source: B. thetaiotaomicron (Bt1762-his strain) grown on MM-fructose, outer membrane fraction in LDAO; purified with Bt1763 (IMAC, SEC); not shown: His6, C-terminal, kept
Consider B1, for which the binding result in the data set with Bt1763 (SusC) is reported as “binds”.

B2: Bt1762-63 SusCD complex (one Bt1762 and one Bt1763), the unit that pairs into SusC2D2 (complex, Bacteroides thetaiotaomicron VPI-5482)
chain 1: B1 chain
chain 2: T1 sequence (looked up)
modifications: lipid anchor (lipoprotein)
notes: Bt1762 (SusD), Bacteroides thetaiotaomicron VPI-5482; as the chain of m1. numbers count on: the mature protein; Bt1763 (SusC), Bacteroides thetaiotaomicron VPI-5482; as the chain of m2. numbers count on: the mature protein; Used for the self-association of the SusCD unit into the SusC2D2 dimer; also called Bt1762-Bt1763; SusCD monomer; source: B. thetaiotaomicron (Bt1762-his strain) grown on …
On to B2, for which the “stoichiometry N” value in data set [1] came to 2.
